Target: active (phosphorylated) human Syk (Merck Millipore) (UniProt P43405)

Substance: catalytically inactive human C373A Cbl-b^29-483 mutant (recombinant, GST fusion protein)
- in vitro poly-ubiquitination of active Syk (Western blot): did not show Syk poly-ubiquitination activity

Reference: patent US20190262431
